From patent US20210253725A1 (BIONTECH, published 2021)
Residue numbers refer to the chain shown, from its start. In names and notes the source's numbering stands.

B1: P018.S.14.A.H01 (antibody, V domains shown)
VH: QSVEESGGRLVTPGTPLTLTCTVSGFSLSDYYMTWVRQAPGKGLEYIGIMSGSGSTYYASWAKGRFTISKTSSTTLELKITSPTTEDTAIYFCARDGDYAGWGYATGAFDPWGPGTLVTVSS
VL: AAVLTQTPSPVSAAVGGTVTISCQASQSVVGNSLLSWFQKKPGQPPKLLIYSASSLASGVPSRFKGSGSGTQFTLTISDLESDDAATYYCTGRYNSDTDTFVFGGGTEVVVK
B2: P018.S.14.A.D06 (antibody, V domains shown)
VH: QSVEESGGRLVTPGTPLTLTCTVSGFSLSTYAMIWVRQAPGKGLEWIGVVYDNGYISHATWVKGRFTISKTSTTVGLEITSPTTEDTATYFCARSADGSWSTYFNLWGQGTLVTVSS
VL: DIVMTQTPASVEAAVGGTVTIKCQASESISNYLAWYQQKPGQPPKLLIYKASTLASGVSSRFKGSGSGTEFTLTISDLESADAATYYCQTNYCCSSSDNGFAFGGGTEVVVK
B3: P018.S.13.A.A06 (antibody, V domains shown)
VH: QSVEESGGRLVTPGTPLTLTCTASGFTISDFHVTWVRQAPGKGLEWIGTIITSASTTAYATWARGRFTISKSSTTVNLKIVSPTTEDTATYFCARSTYTDTSGYYFDFWGQGTLVTVSS
VL: AQVLTQTASPVSAAVGGTVIINCQSSQSIYNGNRLSWYQQKPGQPPKLLIYSASTLASGVSSRFKGSGSGTQFTLAISDVQSDDAATYYCLGSYDCDSADCFAFGGGTEVVVE
B4: P018.S.13.A.G04 (antibody, V domains shown)
VH: QSLEESGGRLVTPGTPLTLTCTASGFSLSSYDMSWVRQAPGKGLEYIGYISSSGNTYYASWAKSRFTISKTSTTVDLKITSPTTEDTATYFCAREGDYWDFNLWGPGTLVTVSS
VL: AQVLTQTPSSVSAAVGGTVTINCQASQSISNLLAWYQQKPGQRPRLLIYRASTLASGVPSRFKGSGSGTEFTLTISDLESEDAATYYCAGGFPGLDTGATFGGGTEAVVT
B5: P018.S.14.A.A04 (antibody, V domains shown)
VH: QSLEESGGRLVTPGTPLTLTCTVSGFSLNDYWMSWVRQAPGKGLEWIGYIDVGGSLYYASWAKGRFTISRTSTTVDLKMTSLTTEDTATYFCARGGLTYGFDLWGPGTLVTVSS
VL: DIVMTQTPASVSEPVGGTVTINCQASEDISSYLAWYQQKPGQRPKRLIYGASDLASGVPSRFSASGSGTEYALTISDLESADAATYYCHYYATISGLGVAFGGGTEVVVK
B6: P018.S.13.A.C02 (antibody, V domains shown)
VH: QSVEESGGRLVTPGTPLTLTCTVSGFSLSSYAMSWVRQAPGKGLEWIGIISTSGITYYASWAKGRFTISKTSTMVDLKITSPTTEDTATYFCARLNGFDDYVRYFDFWGLGTLVTVSS
VL: AIELTQTPSSVSAAVGGTVTINCQASESIASNLAWYQQKPGQPPKLLIYAASYLASGVPSRFKGSGSGTEYTLTISGVQSADAATYYCQSAFYVSSSDNAFGGGTEVVVK
notes: V regions on human Ig constant parts; also called AB137_6
B7: P018.S.13.A.G03 (antibody, V domains shown)
VH: QSLEESGGRLVTPGTPLTLTCTASGFSLSSYDVSWVRQAPGKGLEYIGFIGSDGSAHYATWVKGRFTISKTSTTVDLKITSPTTEDTATYFCARDWNDYWAHDLWGPGTLVTVSS
VL: AQVLTQTTSPVSAAVGGTVTINCQASQIVTSKSALSWYQQKPGQPPRLLIYKASTLASGVPSRFSGSGSGTQFTLTISDLESDDAATYYCAGGYYNSGDLNPFGGGTEVVVK
notes: V regions on human Ig constant parts; also called AB137_7
B8: P018.S.14.A.H01 (antibody, V domains shown)
VH: B1 VH
VL: B1 VL
notes: V regions on human Ig constant parts; also called AB137_12
B9: P018.S.08.A.A04 (antibody, V domains shown)
VH: QSVEESGGRLVTPGTPLTLTCTVSGFSLSSYAVSWVRQAPGKGLEWIGVIWNNGATHYATWAKGRFTISKASTTVDLKVTSPTTEDTATYFCARSANDAWSTYSDLWGQGTLVTVSS
VL: DIVMTQTPASVEAAVGGTVTIKCQASQTITNYLSWYQQKPGQPPKLLIYKASTLTSGVSSRFKGSGSGTEFTLTISDLESDDAATYYCQNYYYGSSSGYGFVFGGGTEVVVK
notes: V regions on human Ig constant parts; also called AB137_1
B10: P018.S.14.A.D06 (antibody, V domains shown)
VH: B2 VH
VL: B2 VL
notes: V regions on human Ig constant parts; also called AB137_10
B11: P018.S.13.A.A06 (antibody, V domains shown)
VH: B3 VH
VL: B3 VL
notes: V regions on human Ig constant parts; also called AB137_5
B12: P018.S.08.A.E03 (antibody, V domains shown)
VH: QSVEESGGRLVTPGTPLTLTCTVSGFSLTYYAVTWVRQPPGKGLEWIGVIYDNGATAFATWAKGRFTMSKNSTTVALKVTSPTTEDTATYFCARSANNAWSTYSNLWGQGTLVTVSS
VL: DIVMTQTPSSVSAAVGGTVTINCQASEDISSYLSWYQQKLGQPPKLLIYKASTLESGVPSRFKGSGSGTEYTLTISDLESDDAATYYCQSYYSGSISGYGFVFGGGTGVVVK
notes: V regions on human Ig constant parts; also called AB137_2
B13: P018.S.13.A.A05 (antibody, V domains shown)
VH: B4 VH with S30R, Y49V, N55G, Y57N, S60N, S64G
VL: B4 VL with R43P, R45K, R50G, K63S, E81D, G98V, T100A
notes: V regions on human Ig constant parts; also called AB137_4
B14: P018.S.13.A.G04 (antibody, V domains shown)
VH: B4 VH
VL: B4 VL
notes: V regions on human Ig constant parts; also called AB137_8
B15: P018.S.08.A.F03 (antibody, V domains shown)
VH: QSVEESGGRLVTPGTPLTLTCTASGFTISSYHMIWVRQAPGEGLEWIGDIYGGTATTDYASWAKGRFTISKTSTTVDLKMTSLTTEDTATYFCARARYSGGSYANYVFNLWGQGTLVTVSS
VL: DIVMTQTPASVEAAVGGTVTIKCQASQSISSYLAWYQQKPGQPPKLLIYRTSTLESGVPSRFKGSGSGTEFTLTISDLESADAATYYCQGYDWSSSNRYDNTFGGGTEVVVK
notes: V regions on human Ig constant parts; also called AB137_3
B16: P018.S.14.A.A04 (antibody, V domains shown)
VH: B5 VH
VL: B5 VL
notes: V regions on human Ig constant parts; also called AB137_9
B17: P018.S.14.A.G03 (antibody, V domains shown)
VH: QSLEESGGRLVTPGTPLTLTCTVSGIDLSSYHMCWVRQAPGKGLEYIGYIAYGGNTYYANWAKGRFTISKTSTTVDLRITSPTTEDTATYFCARGYSEDSYWGLWGPGTLVTVSS
VL: AYDMTQTPASVEAAVGGTVTIKCQASQNIENYLAWYQQKPGQPPKLLIYDTSKLTSGVPSRFSGSGSGTDFTLTISGVQSDDAATYYCQQDYGIIFVDNIFGGGTEVVVK
notes: V regions on human Ig constant parts; also called AB137_11

Target: human 4-1BB (CD137) (human, UniProt Q07011 24-255)
Sequence (Q07011 24-255): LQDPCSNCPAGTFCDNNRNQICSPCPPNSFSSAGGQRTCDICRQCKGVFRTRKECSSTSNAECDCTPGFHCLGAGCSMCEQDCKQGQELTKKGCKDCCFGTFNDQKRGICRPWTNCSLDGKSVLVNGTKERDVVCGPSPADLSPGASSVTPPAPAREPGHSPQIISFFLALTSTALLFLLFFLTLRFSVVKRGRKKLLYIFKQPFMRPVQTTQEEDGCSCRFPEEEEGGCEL
Assay: cell-based or functional assay
Throughout, for Functional assay Cross-linked by F(ab′)2 fragment IL-8: test concentration or dose not given here.
Throughout, for Functional assay IL-8: test concentration or dose not given here.

EC 50 [ng/mL] of agonistic function (IL-8 release from CD137-overexpressing HT1080 cells, antibody cross-linked by F(ab')2 goat anti-human IgG)	Binder
5820 ng/mL	B1
10200 ng/mL	B2
7790 ng/mL	B3
255000 ng/mL	B4
6790 ng/mL	B5

Target: T1, CD137 protein (His-tagged, Sino Biological Inc. 10041-H08H) (human, UniProt Q07011 24-186)
T1 construct: bought protein coated on ELISA plates; also called 4-1BB; TNFRSF9; not shown: His tag
Assay: ELISA, coated His-tagged CD137; note: test concentration or dose not given here

ELISA [abs. corr.]	Binder
2.55 abs. corr.	B6
1.73 abs. corr.	B7
2.97 abs. corr.	B8
3.42 abs. corr.	B9
2.9 abs. corr.	B10
3.39 abs. corr.	B11
3.05 abs. corr.	B12
0.687 abs. corr.	B13
0.577 abs. corr.	B14
2.33 abs. corr.	B15
3.44 abs. corr.	B16
2.07 abs. corr.	B17

Target: T2, CD137 expressed on the cell surface of HT1080_4-1BB cells (human, UniProt Q07011 24-255)
T2 sequence (Q07011 24-255): as above
Assay: cell-based or functional assay

Functional assay Cross-linked by F(ab′)2 fragment IL-8	Functional assay IL-8	Binder
1.4 abs. corr.	0.113 abs. corr.	B6
0.789 abs. corr.	-0.164 abs. corr.	B7
2.19 abs. corr.	2.02 abs. corr.	B8
1.55 abs. corr.	0.368 abs. corr.	B9
1.52 abs. corr.	-0.011 abs. corr.	B10
1.71 abs. corr.	-0.153 abs. corr.	B11
2.02 abs. corr.	-0.304 abs. corr.	B12
2.57 abs. corr.	0.559 abs. corr.	B13
1.8 abs. corr.	-0.179 abs. corr.	B14
1.36 abs. corr.	-0.346 abs. corr.	B15
0.972 abs. corr.	0.785 abs. corr.	B16
1.14 abs. corr.	0.222 abs. corr.	B17

Target: T2, CD137 expressed on the cell surface of …
Assay: HT1080_4-1BB cells, imaging; note: test concentration or dose not given here

Cellular binding assay [RFU]	Binder
8 RFU	B6
13 RFU	B7
6 RFU	B8
46 RFU	B9
1 RFU	B10
38 RFU	B11
9 RFU	B12
0 RFU	B13
1 RFU	B14
7 RFU	B15
81 RFU	B16
19 RFU	B17
